According to patent US20100256070A1:

Target: Diphtheria toxin anti-CD5 ScFv fusion protein bearing a granzyme B cleavage sequence

B1: mouse granzyme B (protein)
chain: IIGGHEVKPHSRPYMALLSIKDQQPEAICGGFLIREDFVLTAAHCEGSIINVTLGAHNIKEQEKTQQVIPMVKCIPHPDYNPKTFSNDIMLLKLKSKAKRTRAVRPLNLPRRNVNVKPGDVCYVAGWGRMAPMGKYSNTLQEVELTVQKDRECESYFKNRYNKTNQICAGDPKTKRASFRGDSGGPLVCKKVAAGIVSYGYKDGSPPRAFTKVSSFLSWIKKTMKSS
With B1 as the protein, how does the “in vitro cleavage by granzyme B (gel)” value read?
The value was “only a small fraction of DT and PEA fusion proteins was cleaved”.
